These results are taken from article PMC7245740, “Hydrogen peroxide-producing pyruvate oxidase from Lactobacillus delbrueckii is catalytically activated by phosphotidylethanolamine” (BMC Microbiology, 2020).

“And” between values parts separate entries of the source, which are not always exact repeats. Equal entries are not always repeated.

One experiment concerns the target T1, Δ34 Pox (Lactobacillus delbrueckii, UniProt Q1G7Z6).
T1 construct: gene pox1; C-terminal truncation lacking the last 34 residues, C-terminal His6, vector pFLAG-CTC, expressed in E. coli LOBSTR
T1 sequence (Q1G7Z6 1-582): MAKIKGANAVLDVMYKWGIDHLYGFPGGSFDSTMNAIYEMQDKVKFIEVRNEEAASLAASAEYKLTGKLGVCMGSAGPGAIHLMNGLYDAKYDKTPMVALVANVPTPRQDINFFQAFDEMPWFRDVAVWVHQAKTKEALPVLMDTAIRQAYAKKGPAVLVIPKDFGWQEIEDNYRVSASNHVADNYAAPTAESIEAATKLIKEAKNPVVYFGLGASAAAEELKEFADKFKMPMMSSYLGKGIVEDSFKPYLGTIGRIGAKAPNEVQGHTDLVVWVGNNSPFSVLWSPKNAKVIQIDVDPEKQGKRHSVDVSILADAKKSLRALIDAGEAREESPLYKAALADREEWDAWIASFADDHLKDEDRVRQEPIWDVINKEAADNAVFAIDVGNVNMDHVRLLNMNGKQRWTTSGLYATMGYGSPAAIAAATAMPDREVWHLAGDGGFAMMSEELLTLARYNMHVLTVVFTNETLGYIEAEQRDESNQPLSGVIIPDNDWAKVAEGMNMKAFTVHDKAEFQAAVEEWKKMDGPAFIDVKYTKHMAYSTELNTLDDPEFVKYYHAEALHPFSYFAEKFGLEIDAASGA
In words: fold activity relative to no phospholipid, same coupled assay. Particulars: activator; 50 mM pyruvate, 50 mM phosphate, 15 μM FAD, 300 μM TPP, pH 5.6, 25 °C; lipid suspension. Type of experiment: biochemical.

In experiment [1] the target is Pyruvate oxidase (Pox) from Lactobacillus delbrueckii strain STYM1 (Lactobacillus delbrueckii STYM1). In words: non-reducing SDS-PAGE; Coomassie stain of gel filtration fractions and of purified Pox after SDS-PAGE under non-reducing conditions; disulfide-linked dimer. Background: SEC sorts molecules by how far they enter the pores of the column.
Experiment [2] has the same target. In words: SEC; Superdex 200, 20 mM Bis-Tris pH 6, 150 mM NaCl, 0.5 mL/min; 840 ug purified Pox pre-incubated with 50 mM pyruvate, 300 uM TPP, 15 uM FAD for 10 min at room temperature; molecular weight from a standard curve of protein standards.

Turning to `CCCCCCCC/C=C\CCCCCCCC(=O)O[C@H](COC(=O)CCCCCCCCCCCCCCC)COP(=O)(O)OCCN` [phosphotidylethanolamine (16:0–18:1)], on Δ34 Pox, the fold activity is ~ 2 fold.

One may read the stoichiometry N as the number of molecules, sites or subunits per partner or assembly. In the case of “Pyruvate oxidase (Pox) from Lactobacillus delbrueckii strain STYM1 (enzyme)”, the stoichiometry N in experiment [1] was 2; in experiment [2], 10 and 5.
